# The nanobody polyreactivity screen of Harvey et al. (2022)
# Assay: yeast display, Sf9 membrane polyspecificity reagent, FACS + sequencing; frameworks hold sequencing errors
# Summary of the method: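 Nanobodies from a synthetic yeast display library (Saccharomyces cerevisiae BJ5465), induced 36–48 hours with galactose, were stained 1 hour at 4 °C with 10% biotinylated, detergent-solubilized Sf9 membrane reagent, enriched on streptavidin microbeads, then FACS-sorted. Anti-HA (expression) and streptavidin (reagent binding) fluorescence set low and high (top ~1%) gates. Polyreactivity labels come from the gate of origin. Genes were colony-PCR amplified, MiSeq 2 × 250 sequenced and filtered by CDR length.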
row,Sequence,polyreactivity (PSR sort gate)
1,QVQLVESGGGLVHAGGSLRLSCAASGSIFFHNAMGWYRQAPGKERELVAAISGGGSTTYADSVKGRFTISRDNAKNTVYLQMNSLKPEDTAVYYCAKSYRYYALHYSPGWYNYWGQGTQVTVSS,high polyreactivity
2,QVQLQESGGLVQAGGLRLSCAASGSVSYQEAMGWYRQAPGKERELVATISFGANTNYADSVKGRFTISRDNAKNTVYLQMNSLKPEDTAVYYCAADAYRWWVRYDYWGQGTQVTVSS,low polyreactivity
3,QVQLVESGGGLVQAGGSLRLSCAASGRTFGSNAMGWYRQAPGKERELVAAISFSGGSTYYADSVKGRFTISRDNAKNTVYLQMNSLKPEDTAVYYCAAEYPQKGDRGSRRRIDGYWGQGTQVTVSS,high polyreactivity
4,QVQLVESGGGLVQAGGSLRLSCAASGSTFDDNAMGWYRQAPGKERELVASITYRGGSTYYADSVKGRFTISRDNAKNTVYLQMNSLKPEDTAVYYCNADYTGAEYDYWGQGTQVTVSS,low polyreactivity
5,QVQLVDSGGGLVQAGGSLRLSCAASGITFVFYAMGWYRQAPGKERELVAAISSSGGSTYYADSVKGRFTISRDNAKNTVYLQMNSLKPEDTAVYYCNAKVFSYQGAVRYDYWGQGTQVTVSS,high polyreactivity
6,LVQLVESGGGLVQAGGSLRLSCAASGFTFGRNAMGWYRQSPGKEREFVADISGSVGSTYYADSVKGRFTISRDNAKNSVYLQMNRLIPEDTAVYYCAADTLYPRWEFDYWGQGTQVTVSS,high polyreactivity
7,QVQLVESGGGLVQARGSRRLSCAASGLTFVPTAMGWYRQAPGKEREFVAAISNNGGRKYYADSVKGRFTISRDNAKNRVYLQINSLKPDDTAVYYCAKYLSPGERHSYDYWGQGTQVTVSS,high polyreactivity
8,QVQLVESGGGLVQAGGSLRLSCAASGRTLGGYTMGWYRQAPGKERELVAAITTGGSTNYADSVKGRFTISRDNAKNTVYLQMNSLKPEDTAVYYCATDLVFDKRYWYDYWGQGTQVTVSS,low polyreactivity
9,QVQLVESGGGLVQAGGSLRLSCAAYGSIFYWYAMGWYRQAPGKERELVAAISSSNDSTDYADSVKGRFTISRDNAKNTVYLQMNSLKPEDTAVYYCAALYGTIQYDYWGQGTQVTVSS,low polyreactivity
10,QVQLVESGGGLVQAGGSLRLSCAASGNTFKRYAMGRYRQAPGKERELVAAITWRGARTYYADSVKGRLTISRDNAKNTFYLQMNSLKPEDTAVYYCAADGYSGSGPYDYWGQGTQVTVSS,high polyreactivity
11,QVQLVESAGGLVQAGGSLRLSCADSGRTFAYNVIGWYRQAPGKERELVAGISFGAGTTYYADSVKGRFTISRDNAKNTVYLQMNSLKPEDTAVYYCATRRRGTRYPRGYDYWGQGTQVTVSS,high polyreactivity
12,QVQLVESGGGLVQAGGSLRLSCAASGSIFYKYMGWNIQAPGKERELVAAISWSGGRTYYADSVKGRFTISRDNAKNTVYLQMNSLKPEDTAVYYCNRVVLWRIGDKAFEYWGQGTQVTVSS,high polyreactivity
13,QVQLVESGGGLVQAGGSLRLSCAASGRIYGKYAMGWSRQAPGKERELVASISYSGGSTYYADSVKGRFTISRDNAKNTVYLHMISLKPEDTAVYYCAARKWRYGRYVYWGQGTQVTVSS,high polyreactivity
14,QVQLVESGGGLVQAGGSLRLSCAASGSIFNYYDMGWYRQAPGKERELVAAIDLTGGTTYYADSVKGRFTISRDNAKNTVYLQMNSLKPEDTAVYYCAAQYIRSSWWGYDYWGQGTQVSVSS,low polyreactivity
15,QVQLVESGGGLVQAGGSLRLSCAASGRIFNYYAMGWYRQAPGTERELVAAISTDGGSTYYADSVKGRFTISRDNAKNSVYLQMNSLKPEDTAVYYCAAYQYYDFSYSYDYWGQGTQVTVSS,low polyreactivity
16,QVQLVESGGGLVQAGGSLRLSCAASGFTLTRNAMGWYRPAPGKERELVAAISWSGGTTYYADSVKGRFTISRDNAKNTVYLQMNSLKPEDTAVYYCAADSVKYGGDYWGQGTQVTVSS,high polyreactivity
17,QVQLVESGGGLVQAGGSLRLSCAASGITFGANTMGWYRQAPGKERELVAAITISGGITHYADSVKGRFTISRDNAKNTVYLQMNRLKPEDTAVYYCAAGAYWRLYPYRQRNGGRMYYWGQGTQVTVSS,low polyreactivity
18,QVQLVESGGGLVQAGGSLRLSCAASGRTFRYYVMGWYRPATGTERELVAGISGSGGNTYYADSVKGRFTISRDNAKNTVYLQMNSLKPEDTAVYYCNAYSPYAEYDYWGQGTQVTVSS,high polyreactivity
19,QVQLVESGGGIVQEGGSLRLSCAASGRIFGTNAMGWYRQAPGKERELVATITRGGGNTYYADSVKGRFTISRDNAKNTVYLQMKSLKPEDTAVYYCAAKFHRFAWYSHYDYWGQGTQVTVSS,low polyreactivity
20,QVQLVESGGGLVQAGGSLRLSCAASGSTFNNNAMGWYRQAPGKERELVAAISYTGGSTYYADSVKGRFTISRDNAKNTVYLQMKSLKPEDTAVYYCDAAYPHFGGYRYDYWGQGTQVTVSS,high polyreactivity
21,QVQLVESGGGLVQAGGSLRLNCAASGSIFTGNAMGWYRQAPGKERELVASITTSTDSTYYADSVKGRFTISRDNAKNTVYLQMNRLKTEDTAVYYCAAEYAVAWKYGLYFYFHFDYWGQGTQVTVSS,low polyreactivity
22,QVQLVESGGGLVQAGGSLRLSCAASGFTFRKNDMGWYRQAPGKERELLAAISSGGGRTYYADSVKWRFTISRDNAKNTVYLQMNSLKQEDTAVYYCNADDGYYVGLSSAIYDYCGQGTQVTVSS,high polyreactivity

row,Sequence,polyreactivity (PSR sort gate)
1,QVQLVESGGGLVQAGGSLRLSCAASGIIFSSYAMGWYRQAPGKERELVAAITYNGGRTYYADSVKGRFTISRDNAKNTVYLQMNSLKPEDTAVYYCAARTYGGNVLRLDYWGQGTQVTVSS,high polyreactivity
2,QVQLVESGGGLVQAGGSLRLSCAASGRTSFWNAMGWYRQAPGKERELVAAISASVGRTYYADSVKGRFTISRDNAKNTVYLQMNSLKPEDTAVYYCAKVYHAGTGYPSLGLDYWGQGTQVTVSS,low polyreactivity
3,QVQLVESGGGLVQAGGSLRLSCAASGRILLSYAMGWYRQAPGKERELVAAISRSGVSTYYADSVKGRFTISRDNAKNTVYLQMNSLKPEDTAVYYCAAVRSSPGKSWDYNYWGQGTQVTVSS,high polyreactivity
4,QVQLQESGGGLVQAGGSLRLSCAASGSISAVGAMGWYRQAPGKEREFAASVNWGTNTNYADSVKGRFTISRDNAKNTLNLQMNSLKPEDTAVYYCAVQPDWETRHDYWGHGTQVTVSS,low polyreactivity
5,QVQLVESGGGLVQAGGSLRLSCAASGRTFTTNAMGWYRQAPGKERELVAGISYSTGRTYYADSVKGRFTISRDNAKNTVYLQMNSLKPEDTAVYYCAAYTRGYRGYYYWGQGTQVTVSS,high polyreactivity
6,QVQLVESGGGLVQAGGSLRLRCAASGRILWWYAMGWYRQAPGKERELVATITYSGGSTYADSVKGRFTISRDNAKNTVYLQMNSLKPEDTAVYYCAARLPLYYGKSDYWGQGTQVTVSS,high polyreactivity
7,QVQLVESGGGLVQAGASLRLSCAASGFIFGKYAMGWYRQAPGKERELVAAISSSGGSTYYADSVKGRFTISRDTAKNTVYLQMNSLKPEDTAGYYCNAKVRGTNTAGVDYWGQGTQVTVSS,high polyreactivity
8,QVQLVESGGGLVQAGGSLRLSCAASGRIFTRYTMGWYRQAPGKDRELVAAITRGGSTYYADSVKGRFTISRDNANNTVYLQMNSLKPEDTAVYYCATQVWGGRYNYWGQGTQVTVTS,high polyreactivity
9,QVQLVESGGGLVQAGGSLRLSCAASGIFGVNTMGWYRQAPGKERELVASITSGGSTNYADSVKGRFTISRDNAKNTVYLQMNSLKPEDTAVYYCAAGLYLQGPFDYWGQGTQVTVSS,low polyreactivity
10,QVQLVESGGGLVQAGGSLRLICAASGFTFYLYTMGWYRPAPGKERELVASIRRSGGSTYYADSVKGRFTISRDNAKNTVYLQMNSLKPEDTAVYYCAKRTFLVSGPRSYGWYGVYYWGQGTQVTVSS,high polyreactivity
11,QVQLVESGGGLVQAGGSLRLSCAASGSIFGYYAMGWYRQAPGKERELVARIRSTGSTNYADSVKGRFTISRDNAKNTVYLQMNSLKPEDTAVFYCNKLAHRKGGYWGQGTQVTVSS,high polyreactivity
12,QVQLVESGGGLVQAGGSLRLSCAASGLILGVYTMGWYRQAPGKEREFVASINYGGGSTYYADSVKGRFTISRDNAKNTVYLQMNSLKPEDTAVYYCNARSRWGGTRLYSYDYWGQGTQVTVSS,low polyreactivity
13,QVQLVQSGGGLVQAGVSLRLSCAPSGFTFYKYAMGWYRQAPGKERELVAAISGSGTSTYYADSVKGRFTISRHNAKNTVYLQMNSLKPEDTAVYYCATRIVFTRRRMYSWGQGTQVNVSS,high polyreactivity
14,QVQLVESGGGLVQAGGSLRLSCAASGFTFHWYVMGWYRQAPGKERELVAAISRNGGRTYYADSVKGRFTISRDNAKNTVYLQMNSLKPEDTAVYYCATDYGWLYINSIWEYDYWGQGTQVTVSS,high polyreactivity
15,QVQLVESGGGLVQAGGSLRLSCAASGSTFGYNAMGWYRQAPGKERELVARITSSGGSTYYADSVKGRFTISRDNAKNTVYLQMNSLKPEDTAVYYCAAGYPYRAVYRYYYWGQGTQVTVSS,high polyreactivity
16,QVQRVESGGGLVQAGGSLRLSCAASGSIFFDGNAMGWYRQAPGQERELVAAISVSGGSTYYADSVKGRFTISRDNAKNTVYLQMNSLKPEDTAVYYCAKYPSKSYVPGDYWGQGTQVTVSS,low polyreactivity
17,QVQLVESGGGLVQAGGSLRLSSPDSGLIFYLYAMGWYRQSHGKEREFVAAITSGGGSTYYADSVKGRFTISRDNAKNTVYLQINILIPEDTAVFYCAARLVLYITVVYEVDYWGQGTQVTVSS,low polyreactivity
18,QVQLVESGGGLVQAGGSLRLSCAASGYIFINNAMGWYRQAPGKERELVAAISFNSGSTYYADSVKGRFTISRDNAKNTVYLQMNSLKPEDTAVYYCAADYEGWGYDYRGDYWGQGTQVTVSS,low polyreactivity
19,QVQLVESGGGLVQAGGRLRLSCAASGGIFGSYAMGWYRQAPGKERELVADITQSGGRTRYADSVKGRFTISRDNAKNTVYLQMNSLKPEDTAVYYCNAQDVDSGDDYDYWGQGTQVTVSS,low polyreactivity
20,QVQIVESGGGLVQAGGSLRLSCPASGRIFYNNAMGWYRPAPGKERELVAAINWSGGSTYYADSVKGRFTISRDNAKNTVYLQMNSLKPEDTAVYYCNADPHGYYGYGYDYWGQGTQVTVSS,low polyreactivity
21,QVQLVESGGGLVQAGGTLRLSCAASGRIFPYYAMGWYRQAPGKERELVAAINSGGSTYYADSVKGRFTISRDNEKNTVYLQMNSLKPEDSAVYYCAVDPGYYDEYNYWGEGTQVTVSS,low polyreactivity
